# Measurements taken from patent publication US11278600B2, “Human alpha-galactosidase variants” (Codexis, Inc., priority 2014, dated 2022).
# Residue numbers refer to the chain shown, from its start.
# B1: 1 (protein)
# chain: LDNGLARTPTMGWLHWERFMCNLDCQEEPDSCISEKLFMEMAELMVSEGWKDAGYEYLCIDDCWMAPQRDSEGRLQADPQRFPHGIRQLANYVHSKGLKLGIYADVGNKTCAGFPGSFGYYDIDAQTFADWGVDLLKFDGCYCDSLENLADGYKHMSLALNRTGRSIVYSCEWPLYMWPFQKPNYTEIRQYCNHWRNFADIDDSWKSIKSILDWTSFNQERIVDVAGPGGWNDPDMLVIGNFGLSWNQQVTQMALWAIMAAPLFMSNDLRHISPQAKALLQDKDVIAINQDPLGKQGYQLRQGDNFEVWERPLSGLAWAVAMINRQEIGGPRSYTISVASLGKGVACNPACFITQLLPVKRKLGFYEWTSRLRSHINPTGTVLLQLENTMQMSLKDLL
# modifications: Synthetic Polypeptide sequence of Variant No. 1 of mature Human GLA
# B2: 2 (protein)
# chain: B1 chain with E43D, S337A
# modifications: Synthetic Polypeptide sequence of Variant No. 2 of mature Human GLA
# B3: 28 (protein)
# chain: LDNGLARTPTMGWLHWERFMCNLDCQEEPDSCISEKLFMEMAELMVSEGWKDAGYEYLCIDDCWMAPQRDSEGRLQADPQRFPHGIRQLANYVHSKGLKLGIYADVGNKTCAGFPGSFGYYDIDAQTFADWGVDLLKFDGCYCDSLENLADGYKHMSLALNRTGRSIVYSCEWPLYMWPFQKPNYTEIRQYCNHWRNFADIDDSWKSIKSILDWTSFNQERIVDVAGPGGWNDPDMLVIGNFGLSWNQQVTQMALWAIMAAPLFMSNDLRHISPQAKALLQDKDVIAINQDPLGKQGYRLRKGDNFEVWERPLSGLAWAVAMINRQEIGGPRSYTIAVASLGKGVACNPACFITQLLPVKRKLGFYEWTSRLKSHINPTGTVLLQLENTMQMSLKDLLL
# modifications: Synthetic Polypeptide sequence of Variant No. 28 of mature Human GLA
# B4: 32 (protein)
# chain: B3 chain with R299Q, K302Q, I376V
# modifications: Synthetic Polypeptide sequence of Variant No. 32 of mature Human GLA
# B5: 29 (protein)
# chain: B3 chain with I376V
# modifications: Synthetic Polypeptide sequence of Variant No. 29 of mature Human GLA
# B6: 31 (protein)
# chain: B3 chain with R299Q, K302Q
# modifications: Synthetic Polypeptide sequence of Variant No. 31 of mature Human GLA
# B7: 30 (protein)
# chain: B3 chain with R299Q, K373R, I376V
# modifications: Synthetic Polypeptide sequence of Variant No. 30 of mature Human GLA
# B8: 124 (protein)
# chain: B1 chain with M253F, S337A, L394K, K395D, D396L
# modifications: Synthetic Polypeptide sequence of Variant No. 124 of mature Human GLA
# B9: 126 (protein)
# chain: B1 chain with S337A, M390D, L394K, K395D, D396L
# modifications: Synthetic Polypeptide sequence of Variant No. 126 of mature Human GLA
# B10: 127 (protein)
# chain: B1 chain with S337A, M390R, L394K, K395D, D396L
# modifications: Synthetic Polypeptide sequence of Variant No. 127 of mature Human GLA
# B11: 123 (protein)
# chain: B1 chain with M20D, Q302K, S337A, L394K, K395D, D396L
# modifications: Synthetic Polypeptide sequence of Variant No. 123 of mature Human GLA
# B12: 129 (protein)
# chain: B1 chain with S337A, M392G, L394K, K395D, D396L
# modifications: Synthetic Polypeptide sequence of Variant No. 129 of mature Human GLA
# B13: 125 (protein)
# chain: B1 chain with M322I, S337A, L394K, K395D, D396L
# modifications: Synthetic Polypeptide sequence of Variant No. 125 of mature Human GLA
# B14: 128 (protein)
# chain: B1 chain with S337A, M390T, L394K, K395D, D396L
# modifications: Synthetic Polypeptide sequence of Variant No. 128 of mature Human GLA
# Experiment: HTP-analysis of supernatants pretreated with base (MUGal hydrolysis)
# Type: biochemical
# Details: challenge at pH 7.0; activity of the variant/activity of WT GLA (SEQ ID NO: 5); yeast supernatant
# Procedure, shortened: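 GLA variants secreted from yeast INVSc1; culture supernatants pre-incubated with McIlvaine buffer pH 7.0–8.2 or 200 mM bicarbonate pH 9.1–9.7 at 37° C. for 1–18 h. Residual activity: MUGal (4 mM stock) hydrolysis at pH 4.3–4.8, 37° C., 30–180 min, carbonate quench; fluorescence Ex 355/Em 448 nm.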
row,Molecule,Relative Activity of GLA Variants After Challenge at pH 7.0
1,B1,+ (+ = 0.5 to 1.5 relative activity over WT GLA (SEQ ID NO: 5))
2,B2,+ (+ = 0.5 to 1.5 relative activity over WT GLA (SEQ ID NO: 5))
3,B3,+ (+ = 0.5 to 1.5 relative activity over WT GLA (SEQ ID NO: 5))
4,B4,+ (+ = 0.5 to 1.5 relative activity over WT GLA (SEQ ID NO: 5))
5,B5,+ (+ = 0.5 to 1.5 relative activity over WT GLA (SEQ ID NO: 5))
6,B6,+ (+ = 0.5 to 1.5 relative activity over WT GLA (SEQ ID NO: 5))
7,B7,+ (+ = 0.5 to 1.5 relative activity over WT GLA (SEQ ID NO: 5))

# Same assay, conditions: challenge at pH 7.1; activity of the variant/activity of WT GLA (SEQ ID NO: 5); yeast supernatant
row,Molecule,Relative Activity of GLA Variants After Challenge at pH 7.1
1,B8,+ (+ = 0.5 to 1.5 relative activity over WT GLA (SEQ ID NO: 5))
2,B9,+++ (+++ = >2.5 relative activity over WT GLA (SEQ ID NO: 5))
3,B10,++ (++ = >1.5 to 2.5 relative activity over WT GLA (SEQ ID NO: 5))
4,B11,− (− = <0.5 relative activity to WT GLA (SEQ ID NO: 5))
5,B12,++ (++ = >1.5 to 2.5 relative activity over WT GLA (SEQ ID NO: 5))
6,B13,+ (+ = 0.5 to 1.5 relative activity over WT GLA (SEQ ID NO: 5))
7,B14,+ (+ = 0.5 to 1.5 relative activity over WT GLA (SEQ ID NO: 5))

# Experiment: HTP-analysis of yeast culture supernatants, no challenge (MUGal hydrolysis)
# Type: biochemical
# Details: activity of the variant/activity of WT GLA (SEQ ID NO: 5), yeast supernatant
# Procedure, shortened: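 GLA variants were expressed in INVSc1 yeast grown in SD-Ura broth with glucose at 30° C., and culture supernatants were collected after 66-84 h. Supernatant was mixed with McIlvaine buffer pH 4.8 and MUGal (2 mM stock) in 50 mM citrate, 200 mM KCl, pH 4.6, incubated at 37° C. for 30-180 minutes, then quenched with sodium carbonate.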
row,Molecule,Relative Activity of GLA Variants After No Challenge (NC)
1,B1,+ (+ = 0.5 to 1.5 relative activity over WT GLA (SEQ ID NO: 5))
2,B8,++ (++ = >1.5 to 2.5 relative activity over WT GLA (SEQ ID NO: 5))
3,B2,+ (+ = 0.5 to 1.5 relative activity over WT GLA (SEQ ID NO: 5))
4,B9,+++ (+++ = >2.5 relative activity over WT GLA (SEQ ID NO: 5))
5,B10,++ (++ = >1.5 to 2.5 relative activity over WT GLA (SEQ ID NO: 5))
6,B11,− (− = <0.5 relative activity to WT GLA (SEQ ID NO: 5))
7,B12,+ (+ = 0.5 to 1.5 relative activity over WT GLA (SEQ ID NO: 5))
8,B13,+ (+ = 0.5 to 1.5 relative activity over WT GLA (SEQ ID NO: 5))
9,B14,+ (+ = 0.5 to 1.5 relative activity over WT GLA (SEQ ID NO: 5))
10,B3,+ (+ = 0.5 to 1.5 relative activity over WT GLA (SEQ ID NO: 5))
11,B4,+ (+ = 0.5 to 1.5 relative activity over WT GLA (SEQ ID NO: 5))
12,B5,+ (+ = 0.5 to 1.5 relative activity over WT GLA (SEQ ID NO: 5))
13,B6,+ (+ = 0.5 to 1.5 relative activity over WT GLA (SEQ ID NO: 5))
14,B7,+ (+ = 0.5 to 1.5 relative activity over WT GLA (SEQ ID NO: 5))

# Experiment: HTP-analysis of supernatants pretreated with acid (MUGal hydrolysis)
# Type: biochemical
# Details: challenge at pH 4.2; activity of the variant/activity of WT GLA (SEQ ID NO: 5); yeast supernatant
# Procedure, shortened: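 MUGal hydrolysis was tracked by fluorescence (Ex 355 nm, Em 448 nm) after a 30-180 min reaction at 37° C. in pH 4.8 McIlvaine/citrate buffer, stopped with 1 M sodium carbonate. Beforehand, yeast (INVSc1) culture supernatants carrying GLA variants were held 1-3 h at 37° C. in acidic McIlvaine buffer, pH 3.3-4.3.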
row,Molecule,Relative Activity of GLA Variants After Challenge at pH 4.2
1,B8,++ (++ = >1.5 to 2.5 relative activity over WT GLA (SEQ ID NO: 5))
2,B9,+++ (+++ = >2.5 relative activity over WT GLA (SEQ ID NO: 5))
3,B10,++ (++ = >1.5 to 2.5 relative activity over WT GLA (SEQ ID NO: 5))
4,B11,+ (+ = 0.5 to 1.5 relative activity over WT GLA (SEQ ID NO: 5))
5,B12,++ (++ = >1.5 to 2.5 relative activity over WT GLA (SEQ ID NO: 5))
6,B13,+ (+ = 0.5 to 1.5 relative activity over WT GLA (SEQ ID NO: 5))
7,B14,+ (+ = 0.5 to 1.5 relative activity over WT GLA (SEQ ID NO: 5))

# Same assay, conditions: challenge at pH 4.3; activity of the variant/activity of WT GLA (SEQ ID NO: 5); yeast supernatant
row,Molecule,Relative Activity of GLA Variants After Challenge at pH 4.3
1,B1,+ (+ = 0.5 to 1.5 relative activity over WT GLA (SEQ ID NO: 5))
2,B2,+ (+ = 0.5 to 1.5 relative activity over WT GLA (SEQ ID NO: 5))
3,B3,+ (+ = 0.5 to 1.5 relative activity over WT GLA (SEQ ID NO: 5))
4,B4,++ (++ = >1.5 to 2.5 relative activity over WT GLA (SEQ ID NO: 5))
5,B5,+ (+ = 0.5 to 1.5 relative activity over WT GLA (SEQ ID NO: 5))
6,B6,+ (+ = 0.5 to 1.5 relative activity over WT GLA (SEQ ID NO: 5))
7,B7,++ (++ = >1.5 to 2.5 relative activity over WT GLA (SEQ ID NO: 5))
